One molecule from patent publication CN103044552A (INST PATHOGEN BIOLOGY CAMS, dated 2013) can be followed below.

Assay [1] deals with T1, DEC-205分子 (human, on monocyte-derived human dendritic cells) (human, UniProt O60449 28-1722).
T1 construct: whole, on cells; The assay itself used whole human DC
Put plainly: flow cytometry on human monocyte-derived DC, FITC secondary antibody. (In general: Flow cytometry measures light scatter and fluorescence of single cells or particles in a stream.)

Assay [2] addresses DEC-205 (antigen of the SPR measurement, form not stated) (UniProt O60449). Put plainly: SPR (CM5 chip coupled with anti-human secondary antibody; gradient 1000-62.5 nM).

T1 sequence (O60449 28-1722): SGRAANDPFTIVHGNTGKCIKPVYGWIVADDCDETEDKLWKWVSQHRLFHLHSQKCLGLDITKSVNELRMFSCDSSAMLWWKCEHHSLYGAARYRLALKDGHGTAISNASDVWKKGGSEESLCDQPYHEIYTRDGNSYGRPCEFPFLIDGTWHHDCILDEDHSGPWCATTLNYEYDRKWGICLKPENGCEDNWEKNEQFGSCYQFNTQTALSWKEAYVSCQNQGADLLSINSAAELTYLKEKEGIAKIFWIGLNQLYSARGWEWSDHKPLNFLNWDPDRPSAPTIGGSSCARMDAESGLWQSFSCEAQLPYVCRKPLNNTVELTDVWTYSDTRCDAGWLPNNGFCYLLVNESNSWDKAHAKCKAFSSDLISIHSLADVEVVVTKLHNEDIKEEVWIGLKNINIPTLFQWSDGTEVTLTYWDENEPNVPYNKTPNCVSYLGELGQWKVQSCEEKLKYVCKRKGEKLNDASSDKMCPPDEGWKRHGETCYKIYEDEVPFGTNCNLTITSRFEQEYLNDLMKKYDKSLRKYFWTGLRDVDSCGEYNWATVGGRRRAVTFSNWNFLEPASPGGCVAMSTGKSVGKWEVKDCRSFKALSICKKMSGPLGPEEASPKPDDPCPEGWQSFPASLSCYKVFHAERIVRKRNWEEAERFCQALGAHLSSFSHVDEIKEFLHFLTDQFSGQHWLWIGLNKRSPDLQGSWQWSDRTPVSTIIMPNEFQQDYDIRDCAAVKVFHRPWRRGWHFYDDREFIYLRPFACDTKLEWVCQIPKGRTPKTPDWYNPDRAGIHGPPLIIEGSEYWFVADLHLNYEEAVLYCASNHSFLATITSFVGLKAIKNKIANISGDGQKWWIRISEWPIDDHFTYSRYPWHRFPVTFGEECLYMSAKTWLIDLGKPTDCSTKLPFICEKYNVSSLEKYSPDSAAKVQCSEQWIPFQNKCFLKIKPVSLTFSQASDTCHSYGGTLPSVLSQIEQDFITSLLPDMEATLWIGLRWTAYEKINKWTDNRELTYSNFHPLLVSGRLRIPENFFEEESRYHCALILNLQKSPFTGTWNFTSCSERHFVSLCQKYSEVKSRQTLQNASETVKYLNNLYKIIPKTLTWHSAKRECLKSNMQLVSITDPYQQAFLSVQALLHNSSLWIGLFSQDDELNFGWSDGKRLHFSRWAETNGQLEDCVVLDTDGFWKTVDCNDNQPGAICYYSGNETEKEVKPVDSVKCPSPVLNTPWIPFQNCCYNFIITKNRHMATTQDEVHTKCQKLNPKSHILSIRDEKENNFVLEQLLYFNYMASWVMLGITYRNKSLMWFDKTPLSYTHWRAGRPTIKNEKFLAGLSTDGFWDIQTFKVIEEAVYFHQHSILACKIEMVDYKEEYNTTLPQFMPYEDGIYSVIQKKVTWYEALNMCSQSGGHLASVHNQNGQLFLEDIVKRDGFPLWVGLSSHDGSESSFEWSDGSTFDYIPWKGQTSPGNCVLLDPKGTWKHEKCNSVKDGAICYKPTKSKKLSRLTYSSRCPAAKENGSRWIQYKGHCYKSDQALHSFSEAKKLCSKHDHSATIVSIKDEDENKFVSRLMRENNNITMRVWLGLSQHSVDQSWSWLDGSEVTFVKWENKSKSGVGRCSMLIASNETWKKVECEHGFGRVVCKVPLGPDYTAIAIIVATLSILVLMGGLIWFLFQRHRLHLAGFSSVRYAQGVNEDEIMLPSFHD

B1: 人源化的抗树突状细胞表面DEC-205分子的单克隆抗体 (antibody, V domains shown)
VH: EVQLVESGGGLVQPGRSLRLSCAASGFTFSHYYMAWVRQAPGKGLEWVAYISTDGGTTYYRDSVKGRFTISRDNAKSTLYLQMNSLRAEDTAVYYCTTGQPGYNLDYFDYWGQGTLVTVSS
VL: DIQMTQSPSSLSASVGDRVTITCQASQDIGYWLAWYQLKPGKSPQLLIYGATSLADGVPSRFSGSGSGTDYTLTISSLQPEDIATYYCQQASSVPWTFGGGTKLEIK
notes: FITC-labelled in the internalisation assay
One may read the Kd as the concentration at which binding is half-saturated. A higher Kd goes with lower affinity. One may read the koff as the first-order rate constant of dissociation. By kon is commonly meant the rate constant with which the complex forms. A higher kon goes with faster complex formation. Take B1: the binding result in assay [1] is listed as “binds”. In assay [2], the Kd was found to be 16.7 nM, the koff worked out at 0.000137 s⁻¹ and the kon amounted to 8220 M⁻¹ s⁻¹.
